This test deals with T1, human serum albumin (Homo sapiens, UniProt P02768).
T1 construct: also called HSA
As to the kind of experiment: BLI. Conditions: both partners purified.

B1: DesAb-RBD-C1 (VHH)
VHH: EVQLEESGGGLVQPGGSLRLSCAASGFNIKDTYIGWVRQAPGKGEEWVASIYPTSGYTRYADSVKGRFTISADTSKNTAYLQMNSLRAEDTAVYYCAAGSGSSATEVYEEFDYWGQGTLVTVSS
Take B1: the binding result was “no binding”.

B2: DesAb-RBD-C2 (VHH)
VHH: EVQLEESGGGLVQPGGSLRLSCAASGFNIKDTYIGWVRQAPGKGEEWVASIYPTSGYTRYADSVKGRFTISADTSKNTAYLQMNSLRAEDTAVYYCAAGSVVADLSVEEFDYWGQGTLVTVSS
For B2, the binding result was “no binding”.

The values above are taken from PMC9651861 (Science Advances, 2022).
